Assay: Stabilization of insulin suspension in 100% ethanol, activity retained by reversed phase HPLC
Type: physicochemical
Conditions: pH 7.4
Description: The conical tubes were then sealed with punctured parafilm, and frozen overnight at ˜−15° C. to −20° C. […] This process was started two or three days prior to the start of the experiment. […] For each sample, there were four (4) time-points prepared. […] The diluted samples were then analyzed by reversed phase HPLC method using standard techniques known to the art. The other time-points were sealed with parafilm. Four (4) different conditions were tested: (i) & (ii) samples were maintained at 37° C. with and without shaking; (iii) samples were maintained at 40° C. with shaking; and (iv) samples were maintained at room temperature with no shaking. A Labline environmental incubator/shaker was used at 37° C. and at 40° C. while shaking at 220 rpm. […] Inversion was used to gently mix.
Percent activity retained was determined by high-performance liquid chromatography (HPLC).

Insulin: Lyophilized human insulin, supplied from Roche Biochemical Co., suspended in 200 proof ethanol
Activity Retained (%) (2.0 months, 20 °C, shaking NA): 90% | Activity Retained (%) (2.0 months, 40 °C, shaking 220 rpm): 55% | Activity Retained (%) (2.5 months, 37 °C, shaking NA): 93%

From patent US20100239676A1, “Stable Aerosolizable Suspensions of Proteins in Ethanol” (priority 2000, published 2010)
